This note sets out measurements from the RNAGym collection of RNA variant scans (doi:10.1021/acssynbio.7b00057).

B1: Pistol ribozyme (parent)
chain: GGGUCGUUGUUCCAUAAUCGCGUGGAUAUGGCACGCAAGUUUCUACCGGGCACCGUAAAUGUCCGACUGGAGCCGUUCGGGCGGCUAUAAACAGACCUCAGGCCCGAAGCGUGGCGGCACCUGCCGCCGGUGGUAAAAAAGAUCGGAAGAGCACACGUCU

The variants in this data set derive from B1. The data set can be described thus: aptazyme ON/OFF ratio, guanine; higher = stronger switching; co-transcriptional cleavage with and without guanine.
On to GGGUCGUGUUUAGAUAAUCGCGUGGAUAUGGCACGCAAGUUUCUACCGGGCACCGUAAAUGUCCGACUGGAGCCGUUCGGGCGGCUAUAAACAGACCUCAGGCCCGAAGCGUGGCGGCACCUGCCGCCGGUGGUAAAAAAGAUCGGAAGAGCACACGUCU [U8G G9U C12A C13G], for which the “aptazyme ON/OFF ratio” value was 1.22. In the case of GGGUCGUGUUUAUAUAAUCGCGUGGAUAUGGCACGCAAGUUUCUACCGGGCACCGUAAAUGUCCGACUGGAGCCGUUCGGGCGGCUAUAAACAGACCUCAGGCCCGAAGCGUGGCGGCACCUGCCGCCGGUGGUAAAAAAGAUCGGAAGAGCACACGUCU [U8G G9U C12A C13U] it was 1.07. In the case of GGGUCGUGUUUAAAUAAUCGCGUGGAUAUGGCACGCAAGUUUCUACCGGGCACCGUAAAUGUCCGACUGGAGCCGUUCGGGCGGCUAUAAACAGACCUCAGGCCCGAAGCGUGGCGGCACCUGCCGCCGGUGGUAAAAAAGAUCGGAAGAGCACACGUCU [U8G G9U C12A C13A] it was 1.41; in that of GGGUCGUGUAUUCAUAAUCGCGUGGAUAUGGCACGCAAGUUUCUACCGGGCACCGUAAAUGUCCGACUGGAGCCGUUCGGGCGGCUAUAAACAGACCUCAGGCCCGAAGCGUGGCGGCACCUGCCGCCGGUGGUAAAAAAGAUCGGAAGAGCACACGUCU [U8G G9U U10A C12U], 1.11; in that of GGGUCGUGUAUGCAUAAUCGCGUGGAUAUGGCACGCAAGUUUCUACCGGGCACCGUAAAUGUCCGACUGGAGCCGUUCGGGCGGCUAUAAACAGACCUCAGGCCCGAAGCGUGGCGGCACCUGCCGCCGGUGGUAAAAAAGAUCGGAAGAGCACACGUCU [U8G G9U U10A C12G], 1.15. On to GGGUCGUGUAUACAUAAUCGCGUGGAUAUGGCACGCAAGUUUCUACCGGGCACCGUAAAUGUCCGACUGGAGCCGUUCGGGCGGCUAUAAACAGACCUCAGGCCCGAAGCGUGGCGGCACCUGCCGCCGGUGGUAAAAAAGAUCGGAAGAGCACACGUCU [U8G G9U U10A C12A], for which the “aptazyme ON/OFF ratio” value stood at 1.43. In the case of GGGUCGUGUUUCGAUAAUCGCGUGGAUAUGGCACGCAAGUUUCUACCGGGCACCGUAAAUGUCCGACUGGAGCCGUUCGGGCGGCUAUAAACAGACCUCAGGCCCGAAGCGUGGCGGCACCUGCCGCCGGUGGUAAAAAAGAUCGGAAGAGCACACGUCU [U8G G9U C13G] it was 1.1; in that of GGGUCGUGUUUCUAUAAUCGCGUGGAUAUGGCACGCAAGUUUCUACCGGGCACCGUAAAUGUCCGACUGGAGCCGUUCGGGCGGCUAUAAACAGACCUCAGGCCCGAAGCGUGGCGGCACCUGCCGCCGGUGGUAAAAAAGAUCGGAAGAGCACACGUCU [U8G G9U C13U], 1.41; in that of GGGUCGUGUUUCAAUAAUCGCGUGGAUAUGGCACGCAAGUUUCUACCGGGCACCGUAAAUGUCCGACUGGAGCCGUUCGGGCGGCUAUAAACAGACCUCAGGCCCGAAGCGUGGCGGCACCUGCCGCCGGUGGUAAAAAAGAUCGGAAGAGCACACGUCU [U8G G9U C13A], 1.39. In the case of GGGUCGUGUUUUAAUAAUCGCGUGGAUAUGGCACGCAAGUUUCUACCGGGCACCGUAAAUGUCCGACUGGAGCCGUUCGGGCGGCUAUAAACAGACCUCAGGCCCGAAGCGUGGCGGCACCUGCCGCCGGUGGUAAAAAAGAUCGGAAGAGCACACGUCU [U8G G9U C12U C13A] it was 1.22. As to GGGUCGUGUUUUUAUAAUCGCGUGGAUAUGGCACGCAAGUUUCUACCGGGCACCGUAAAUGUCCGACUGGAGCCGUUCGGGCGGCUAUAAACAGACCUCAGGCCCGAAGCGUGGCGGCACCUGCCGCCGGUGGUAAAAAAGAUCGGAAGAGCACACGUCU [U8G G9U C12U C13U], the “aptazyme ON/OFF ratio” value came to 1.14. Next, GGGUCGUGUUUUGAUAAUCGCGUGGAUAUGGCACGCAAGUUUCUACCGGGCACCGUAAAUGUCCGACUGGAGCCGUUCGGGCGGCUAUAAACAGACCUCAGGCCCGAAGCGUGGCGGCACCUGCCGCCGGUGGUAAAAAAGAUCGGAAGAGCACACGUCU [U8G G9U C12U C13G]: 1.28; GGGUCGUGCUGGUAUAAUCGCGUGGAUAUGGCACGCAAGUUUCUACCGGGCACCGUAAAUGUCCGACUGGAGCCGUUCGGGCGGCUAUAAACAGACCUCAGGCCCGAAGCGUGGCGGCACCUGCCGCCGGUGGUAAAAAAGAUCGGAAGAGCACACGUCU [U8G G9C U11G C12G C13U]: 1.11. In the case of GGGUCGUGCUGGAAUAAUCGCGUGGAUAUGGCACGCAAGUUUCUACCGGGCACCGUAAAUGUCCGACUGGAGCCGUUCGGGCGGCUAUAAACAGACCUCAGGCCCGAAGCGUGGCGGCACCUGCCGCCGGUGGUAAAAAAGAUCGGAAGAGCACACGUCU [U8G G9C U11G C12G C13A] it was 1.09; in that of GGGUCGUGCUGGGAUAAUCGCGUGGAUAUGGCACGCAAGUUUCUACCGGGCACCGUAAAUGUCCGACUGGAGCCGUUCGGGCGGCUAUAAACAGACCUCAGGCCCGAAGCGUGGCGGCACCUGCCGCCGGUGGUAAAAAAGAUCGGAAGAGCACACGUCU [U8G G9C U11G C12G C13G], 1.07. Next, GGGUCGUGCUGCAAUAAUCGCGUGGAUAUGGCACGCAAGUUUCUACCGGGCACCGUAAAUGUCCGACUGGAGCCGUUCGGGCGGCUAUAAACAGACCUCAGGCCCGAAGCGUGGCGGCACCUGCCGCCGGUGGUAAAAAAGAUCGGAAGAGCACACGUCU [U8G G9C U11G C13A]: 1.05. Turning to GGGUCGUGCUGCUAUAAUCGCGUGGAUAUGGCACGCAAGUUUCUACCGGGCACCGUAAAUGUCCGACUGGAGCCGUUCGGGCGGCUAUAAACAGACCUCAGGCCCGAAGCGUGGCGGCACCUGCCGCCGGUGGUAAAAAAGAUCGGAAGAGCACACGUCU [U8G G9C U11G C13U], the “aptazyme ON/OFF ratio” value was found to be 1.06.

As to GGGUCGUGCUGCGAUAAUCGCGUGGAUAUGGCACGCAAGUUUCUACCGGGCACCGUAAAUGUCCGACUGGAGCCGUUCGGGCGGCUAUAAACAGACCUCAGGCCCGAAGCGUGGCGGCACCUGCCGCCGGUGGUAAAAAAGAUCGGAAGAGCACACGUCU [U8G G9C U11G C13G], the “aptazyme ON/OFF ratio” value was found to be 1.04.

With GGGUCGUGUUUCCAUAAUCGCGUGGAUAUGGCACGCAAGUUUCUACCGGGCACCGUAAAUGUCCGACUGGAGCCGUUCGGGCGGCUAUAAACAGACCUCAGGCCCGAAGCGUGGCGGCACCUGCCGCCGGUGGUAAAAAAGAUCGGAAGAGCACACGUCU [U8G G9U], the “aptazyme ON/OFF ratio” value amounted to 3.25. On to GGGUCGUGUUUGAAUAAUCGCGUGGAUAUGGCACGCAAGUUUCUACCGGGCACCGUAAAUGUCCGACUGGAGCCGUUCGGGCGGCUAUAAACAGACCUCAGGCCCGAAGCGUGGCGGCACCUGCCGCCGGUGGUAAAAAAGAUCGGAAGAGCACACGUCU [U8G G9U C12G C13A], for which the “aptazyme ON/OFF ratio” value came to 1.3. Next, GGGUCGUGUUUGUAUAAUCGCGUGGAUAUGGCACGCAAGUUUCUACCGGGCACCGUAAAUGUCCGACUGGAGCCGUUCGGGCGGCUAUAAACAGACCUCAGGCCCGAAGCGUGGCGGCACCUGCCGCCGGUGGUAAAAAAGAUCGGAAGAGCACACGUCU [U8G G9U C12G C13U]: 1.31; GGGUCGUGUUUGGAUAAUCGCGUGGAUAUGGCACGCAAGUUUCUACCGGGCACCGUAAAUGUCCGACUGGAGCCGUUCGGGCGGCUAUAAACAGACCUCAGGCCCGAAGCGUGGCGGCACCUGCCGCCGGUGGUAAAAAAGAUCGGAAGAGCACACGUCU [U8G G9U C12G C13G]: 1.27. Take GGGUCGUGUUUACAUAAUCGCGUGGAUAUGGCACGCAAGUUUCUACCGGGCACCGUAAAUGUCCGACUGGAGCCGUUCGGGCGGCUAUAAACAGACCUCAGGCCCGAAGCGUGGCGGCACCUGCCGCCGGUGGUAAAAAAGAUCGGAAGAGCACACGUCU [U8G G9U C12A]: the “aptazyme ON/OFF ratio” value came out at 1.57.

With GGGUCGUGUUUGCAUAAUCGCGUGGAUAUGGCACGCAAGUUUCUACCGGGCACCGUAAAUGUCCGACUGGAGCCGUUCGGGCGGCUAUAAACAGACCUCAGGCCCGAAGCGUGGCGGCACCUGCCGCCGGUGGUAAAAAAGAUCGGAAGAGCACACGUCU [U8G G9U C12G], the “aptazyme ON/OFF ratio” value is 1.64.

As to GGGUCGUGUUUUCAUAAUCGCGUGGAUAUGGCACGCAAGUUUCUACCGGGCACCGUAAAUGUCCGACUGGAGCCGUUCGGGCGGCUAUAAACAGACCUCAGGCCCGAAGCGUGGCGGCACCUGCCGCCGGUGGUAAAAAAGAUCGGAAGAGCACACGUCU [U8G G9U C12U], the “aptazyme ON/OFF ratio” value came out at 1.77. On to GGGUCGUGUAUCCAUAAUCGCGUGGAUAUGGCACGCAAGUUUCUACCGGGCACCGUAAAUGUCCGACUGGAGCCGUUCGGGCGGCUAUAAACAGACCUCAGGCCCGAAGCGUGGCGGCACCUGCCGCCGGUGGUAAAAAAGAUCGGAAGAGCACACGUCU [U8G G9U U10A], for which the “aptazyme ON/OFF ratio” value worked out at 1.2. Next, GGGUCGUGCUGUUAUAAUCGCGUGGAUAUGGCACGCAAGUUUCUACCGGGCACCGUAAAUGUCCGACUGGAGCCGUUCGGGCGGCUAUAAACAGACCUCAGGCCCGAAGCGUGGCGGCACCUGCCGCCGGUGGUAAAAAAGAUCGGAAGAGCACACGUCU [U8G G9C U11G C12U C13U]: 1.25; GGGUCGUGCUGUAAUAAUCGCGUGGAUAUGGCACGCAAGUUUCUACCGGGCACCGUAAAUGUCCGACUGGAGCCGUUCGGGCGGCUAUAAACAGACCUCAGGCCCGAAGCGUGGCGGCACCUGCCGCCGGUGGUAAAAAAGAUCGGAAGAGCACACGUCU [U8G G9C U11G C12U C13A]: 1.1.

As for GGGUCGUGCUGUGAUAAUCGCGUGGAUAUGGCACGCAAGUUUCUACCGGGCACCGUAAAUGUCCGACUGGAGCCGUUCGGGCGGCUAUAAACAGACCUCAGGCCCGAAGCGUGGCGGCACCUGCCGCCGGUGGUAAAAAAGAUCGGAAGAGCACACGUCU [U8G G9C U11G C12U C13G], the “aptazyme ON/OFF ratio” value came out at 1.13. Next, GGGUCGUGUAUAGAUAAUCGCGUGGAUAUGGCACGCAAGUUUCUACCGGGCACCGUAAAUGUCCGACUGGAGCCGUUCGGGCGGCUAUAAACAGACCUCAGGCCCGAAGCGUGGCGGCACCUGCCGCCGGUGGUAAAAAAGAUCGGAAGAGCACACGUCU [U8G G9U U10A C12A C13G]: 1.18; GGGUCGUGUAUAAAUAAUCGCGUGGAUAUGGCACGCAAGUUUCUACCGGGCACCGUAAAUGUCCGACUGGAGCCGUUCGGGCGGCUAUAAACAGACCUCAGGCCCGAAGCGUGGCGGCACCUGCCGCCGGUGGUAAAAAAGAUCGGAAGAGCACACGUCU [U8G G9U U10A C12A C13A]: 1.21; GGGUCGUGUAUAUAUAAUCGCGUGGAUAUGGCACGCAAGUUUCUACCGGGCACCGUAAAUGUCCGACUGGAGCCGUUCGGGCGGCUAUAAACAGACCUCAGGCCCGAAGCGUGGCGGCACCUGCCGCCGGUGGUAAAAAAGAUCGGAAGAGCACACGUCU [U8G G9U U10A C12A C13U]: 1.25. Next, GGGUCGUGUAUGUAUAAUCGCGUGGAUAUGGCACGCAAGUUUCUACCGGGCACCGUAAAUGUCCGACUGGAGCCGUUCGGGCGGCUAUAAACAGACCUCAGGCCCGAAGCGUGGCGGCACCUGCCGCCGGUGGUAAAAAAGAUCGGAAGAGCACACGUCU [U8G G9U U10A C12G C13U]: 1.23; GGGUCGUGUAUGGAUAAUCGCGUGGAUAUGGCACGCAAGUUUCUACCGGGCACCGUAAAUGUCCGACUGGAGCCGUUCGGGCGGCUAUAAACAGACCUCAGGCCCGAAGCGUGGCGGCACCUGCCGCCGGUGGUAAAAAAGAUCGGAAGAGCACACGUCU [U8G G9U U10A C12G C13G]: 1.12; GGGUCGUGUAUGAAUAAUCGCGUGGAUAUGGCACGCAAGUUUCUACCGGGCACCGUAAAUGUCCGACUGGAGCCGUUCGGGCGGCUAUAAACAGACCUCAGGCCCGAAGCGUGGCGGCACCUGCCGCCGGUGGUAAAAAAGAUCGGAAGAGCACACGUCU [U8G G9U U10A C12G C13A]: 1.2. Next, GGGUCGUGCUGUCAUAAUCGCGUGGAUAUGGCACGCAAGUUUCUACCGGGCACCGUAAAUGUCCGACUGGAGCCGUUCGGGCGGCUAUAAACAGACCUCAGGCCCGAAGCGUGGCGGCACCUGCCGCCGGUGGUAAAAAAGAUCGGAAGAGCACACGUCU [U8G G9C U11G C12U]: 1.22.
